Measured values taken from the RNAGym collection of RNA variant scans (doi:10.7554/elife.90254).

B1: LINE1-full (parent)
chain: UACGUAGGUGGUUUUCCCCUGAUAGUGCUAAGGGGGCCUGGAAGUUUGGACUGGGCAGAGCUCAACACAGCGUGGCAAAGUGGCUGUGGCUAGACUGCCUCUCUGGAUUCCUCGUCACUCAGCAGGGCAUCUCUGAGAGAAAUGCC

Variants of: B1
Test: self-cleavage, relative activity (ratio to wild type); higher = more cleavage; in vitro, sequencing; the parent is a self-cleaving ribozyme
In the case of UACGUAGGUGGUUUUCCCCUGAUGGUGCUAAGGGGGCCUGGAAGUUUGGACUGGGCAGUGCUCAACACAGCGUGGCAAAGUGGCUGUGGCUAGACUGCCUCUCUGGAUUCCUCGUCACUCAGCAGGGCAUCUCUGAGAGAAAUGCC [A24G A59U], the self-cleavage is reported as 1.17.
For UACGUAGGUGGUUUUCCCCUGAUGGUGCUAAGGGGGCCUGGAAGUUUGGACUGGGCAGAGCUCAACACAGCGUGGCAAAGUGGCUGUGGCUAGACUGCCUCUCUGGAUUCCUCGUCACUCAGCAGGGCCUCUCUGAGAGAAAUGCC [A24G A129C], the self-cleavage was 0.71.
Variant UACGUAGGUGGUUUUCCCCUGAUGGUGCUAAGGGGGCCUGGAAGUUUGGACUGGGCAGAGCUCAACACAGCGUGGCAAAGUGGCUGUGGCUAGACUGCCUCUCUGGAUUCCUCGUCACUCAGCAGGGCGUCUCUGAGAGAAAUGCC [A24G A129G] has a self-cleavage of 1.19.
For UACGUAGGUGGUUUUCCCCUGAUGGUGCUAAGGGGGCCUGGAAGUUUGGACUGGGCAGAGCUCAACACAGCGUGGCAAAGUGGCUGUGGCUAGACUGCCUCUCUGGAUUCCUCGUCACUCAGCAGGGCAUCUCUGAGUGAAAUGCC [A24G A138U], the self-cleavage was 1.43.
In the case of UACGUAGGUGGUUUUCCCCUGAUGGUGCUAAGGGGGCCUGGAAGUUUGGACUGGGCAGAGCUCAACACGGCGUGGCAAAGUGGCUGUGGCUAGACUGCCUCUCUGGAUUCCUCGUCACUCAGCAGGGCAUCUCUGAGAGAAAUGCC [A24G A69G], the self-cleavage is reported as 0.92.
UACGUAGGUGGUUUUCCCCUGAUGGUGCUAAGGGGGCCUGGAAGUUUGGACUGGGCAGAGCUCAACACAGCGUGGCAAAGUGGCUGUGGCUAGACUGCCUCUCUGGAUUCCUCGUCACUCAGCGGGGCAUCUCUGAGAGAAAUGCC [A24G A124G] showed a self-cleavage of 1.06.
UACGUAGGUGGUUUUCCCCUGAUGGUGCUAAGGGGGCCUGGAAGUUUGGACUGGGCAGAGCUCAACACAGCGUGGCAAAGUGGCUGUGGCUAGACUGCCUCUCUGGAUUCCUCGUCACUCAGCAGGGCAUCUCUGAGAGGAAUGCC [A24G A140G] gave a self-cleavage of 1.68.
UACGUAGGUGGUUUUCCCCUGAUGGUGCUAAGGGGGCCUGGAAGUUUGGACUGGGCAGAGCUCAGCACAGCGUGGCAAAGUGGCUGUGGCUAGACUGCCUCUCUGGAUUCCUCGUCACUCAGCAGGGCAUCUCUGAGAGAAAUGCC [A24G A65G] showed a self-cleavage of 0.3.
In the case of UACGUAGGUGGUUUUCCCCUGAUGGUGCUAAGGGGGCCUGGAAGUUUGGACUGGGCAGAGCUCAACACAGCGUGGCAAAGUGGCUGUGGCUAGGCUGCCUCUCUGGAUUCCUCGUCACUCAGCAGGGCAUCUCUGAGAGAAAUGCC [A24G A94G], the self-cleavage is reported as 0.31.
Work on UACGUAGGUGGUUUUCCCCUGAUGGUGCUAAGGGGGCCUGGAAGUUUGGACUGGGCAGAGCUCAACACAGCGUGGCAAAGUGGCUGUGGCUAGUCUGCCUCUCUGGAUUCCUCGUCACUCAGCAGGGCAUCUCUGAGAGAAAUGCC [A24G A94U] yielded a self-cleavage of 0.49.
UACGUAGGUGGUUUUCCCCUGAUGGUGCUAAGGGGGCCUGGAAGUUUGGACUGGGCAGAGCUCGACACAGCGUGGCAAAGUGGCUGUGGCUAGACUGCCUCUCUGGAUUCCUCGUCACUCAGCAGGGCAUCUCUGAGAGAAAUGCC [A24G A64G] gave a self-cleavage of 0.53.
For UACGUAGGUGGUUUUCCCCUGAUGGUGCUAAGGGGGCCUGGAAGUUUGGACUGGGCAGAGCUCCACACAGCGUGGCAAAGUGGCUGUGGCUAGACUGCCUCUCUGGAUUCCUCGUCACUCAGCAGGGCAUCUCUGAGAGAAAUGCC [A24G A64C], the self-cleavage was 0.38.
Work on UACGUAGGUGGUUUUCCCCUGAUGGUGCUAAGGGGGCCUGGAAGUUUGGACUGGGCAGAGCUCAACACAGCGUGGCAAAGUGGCUGUGGCUAGACUGCCUCUCUGGAUUCCUCGUCUCUCAGCAGGGCAUCUCUGAGAGAAAUGCC [A24G A117U] yielded a self-cleavage of 1.09.
With UACGUAGGUGGUUUUCCCCUGAUGGUGCUAAGGGGGCCUGGAAGUUUGGACUGGGCAGAGCUCAACUCAGCGUGGCAAAGUGGCUGUGGCUAGACUGCCUCUCUGGAUUCCUCGUCACUCAGCAGGGCAUCUCUGAGAGAAAUGCC [A24G A67U] the self-cleavage was 0.24.
In the case of UACGUAGGUGGUUUUCCCCUGAUGGUGCUAAGGGGGCCUGGAAGUUUGGACUGGGCAGAGCUCAACACAGCGUGGCUAAGUGGCUGUGGCUAGACUGCCUCUCUGGAUUCCUCGUCACUCAGCAGGGCAUCUCUGAGAGAAAUGCC [A24G A77U], the self-cleavage is reported as 1.04.
In the case of UACGUAGGUGGUUUUCCCCUGAUGGUGCUAAGGGGGCCUGGAAGUUUGGACUGGGCAGAGCUCAACACAGCGUGGCAAAGUGGCUGUGGCUCGACUGCCUCUCUGGAUUCCUCGUCACUCAGCAGGGCAUCUCUGAGAGAAAUGCC [A24G A92C], the self-cleavage is reported as 0.
Variant UACGUAGGUGGUUUUCCCCUGAUGGUGCUAAGGGGGCCUGGAAGUUUGGACUGGGCAGAGCUCAACACAGCGUGGCAAAGUGGCUGUGGCUGGACUGCCUCUCUGGAUUCCUCGUCACUCAGCAGGGCAUCUCUGAGAGAAAUGCC [A24G A92G] has a self-cleavage of 0.2.
Variant UACGUAGGUGGUUUUCCCCUGAUGGUGCUAAGGGGGCCUGGAAGUUUGGACUGGGCAGAGCUCAACACAGCGUGGCAAAGUGGCUGUGGCUAGACUGCCUCUCUGGUUUCCUCGUCACUCAGCAGGGCAUCUCUGAGAGAAAUGCC [A24G A107U] has a self-cleavage of 1.05.
Variant UACGUAGGUGGUUUUCCCCUGAUGGUGCUAAGGGGGCCUGGAAGUUUGGACUGGGCAGAGCUCAACACAGCGUGGCAAUGUGGCUGUGGCUAGACUGCCUCUCUGGAUUCCUCGUCACUCAGCAGGGCAUCUCUGAGAGAAAUGCC [A24G A79U] has a self-cleavage of 1.59.
In the case of UACGUAGGUGGUUUUCCCCUGAUGGUGCUAAGGGGGCCUGGAAGUUUGGACUGGGCAGAGCUCAACACAGCGUGGCAAGGUGGCUGUGGCUAGACUGCCUCUCUGGAUUCCUCGUCACUCAGCAGGGCAUCUCUGAGAGAAAUGCC [A24G A79G], the self-cleavage is reported as 0.95.
